According to the RNAGym collection of RNA variant scans (doi:10.7554/elife.80360):

B1: CPEB3 Ribozyme (parent)
chain: GGGGGCCACAGCAGAAGCGUUCACGUCGCGGCCCCUGUCAGAUUCUGGUGAAUCUGCGAAUUCUGCUGU

Variants of: B1
Test: self-cleavage, relative activity (ratio to wild type); higher = more cleavage; co-transcriptional

Q: Which self-cleavage does the source give for A10G A40C here?
A: 0.201

Q: Which self-cleavage does the source give for A10G A40G here?
A: 0.728

Q: For A10C G25A, which self-cleavage is on record?
A: 0.212

Q: With A10C G25C as the variant, how does the self-cleavage read?
A: 0.103

Q: Which self-cleavage does the source give for C9U G30U here?
A: 0.837

Q: Which self-cleavage does the source give for A10G A52C here?
A: 0.776

Q: For A10G A52U, which self-cleavage is on record?
A: 0.834

Q: Which self-cleavage does the source give for C9G U36C here?
A: 1.02

Q: With C9G U36G as the variant, how does the self-cleavage read?
A: 0.245

Q: For A10C C27A, which self-cleavage is on record?
A: 0.666

Q: For A10C C27U, which self-cleavage is on record?
A: 0.508

Q: Which self-cleavage does the source give for A10G C29G here?
A: 0.225

Q: Which self-cleavage does the source give for A10G C63U here?
A: 0.615

Q: Which self-cleavage does the source give for A10G C63G here?
A: 0.338

Q: For A10G C63A, which self-cleavage is on record?
A: 0.253

Q: With C9U C24U as the variant, how does the self-cleavage read?
A: 0.888

Q: With C9U C24A as the variant, how does the self-cleavage read?
A: 0.827

Q: For C9U C24G, which self-cleavage is on record?
A: 0.535

Q: Which self-cleavage does the source give for A10C C24U here?
A: 0.891

Q: With A10C C24A as the variant, how does the self-cleavage read?
A: 0.738

Q: Which self-cleavage does the source give for A10G C27G here?
A: 0.199

Q: For A10G C27A, which self-cleavage is on record?
A: 0.857

Q: For A10G C22G, which self-cleavage is on record?
A: 0.145

Q: With A10G C22U as the variant, how does the self-cleavage read?
A: 0.23

Q: For C9U U49C, which self-cleavage is on record?
A: 1.01

Q: For C9U U49G, which self-cleavage is on record?
A: 0.957

Q: Which self-cleavage does the source give for C9U U49A here?
A: 0.99

Q: Which self-cleavage does the source give for C9G U43A here?
A: 1.02

Q: For C9G U43C, which self-cleavage is on record?
A: 0.996

Q: With C9G U43G as the variant, how does the self-cleavage read?
A: 0.955

Q: For A10C G50A, which self-cleavage is on record?
A: 0.971

Q: Which self-cleavage does the source give for A10G A16C here?
A: 0.145

Q: For A10G A16U, which self-cleavage is on record?
A: 0.452

Q: Which self-cleavage does the source give for A10G A16G here?
A: 0.894

Q: Which self-cleavage does the source give for C9U G14A here?
A: 0.878

Q: For A10C U21A, which self-cleavage is on record?
A: 0.959

Q: With A10C U55A as the variant, how does the self-cleavage read?
A: 0.824

Q: Which self-cleavage does the source give for A10C U55C here?
A: 0.911

Q: Which self-cleavage does the source give for A10G G17A here?
A: 0.132

Q: With A10G G17U as the variant, how does the self-cleavage read?
A: 0.106

Q: With A10C A59U as the variant, how does the self-cleavage read?
A: 0.82

Q: For C9U G31U, which self-cleavage is on record?
A: 0.977

Q: Which self-cleavage does the source give for C9U G31C here?
A: 0.38

Q: Which self-cleavage does the source give for C9U G31A here?
A: 1

Q: With A10C A13G as the variant, how does the self-cleavage read?
A: 0.911

Q: With A10C A13U as the variant, how does the self-cleavage read?
A: 0.484

Q: With A10C A13C as the variant, how does the self-cleavage read?
A: 0.638

Q: With C9U U43A as the variant, how does the self-cleavage read?
A: 0.971

Q: For C9U U43C, which self-cleavage is on record?
A: 1.02

Q: For C9U G56A, which self-cleavage is on record?
A: 0.992

Q: With C9U G56C as the variant, how does the self-cleavage read?
A: 0.959

Q: With A10G C34G as the variant, how does the self-cleavage read?
A: 0.82

Q: Which self-cleavage does the source give for A10G C34A here?
A: 0.89

Q: Which self-cleavage does the source give for C9U A51G here?
A: 1.02

Q: For C9U A51C, which self-cleavage is on record?
A: 1.03

Q: Which self-cleavage does the source give for A10C A52G here?
A: 0.988

Q: With C9U U55G as the variant, how does the self-cleavage read?
A: 0.953

Q: With C9U U55A as the variant, how does the self-cleavage read?
A: 0.932

Q: Which self-cleavage does the source give for C9U U55C here?
A: 1.02

Q: For C9U A40U, which self-cleavage is on record?
A: 0.915

Q: For C9U A40G, which self-cleavage is on record?
A: 1.03

Q: For A10G C24G, which self-cleavage is on record?
A: 0.297

Q: For A10G C24A, which self-cleavage is on record?
A: 0.615

Q: Which self-cleavage does the source give for A10G C24U here?
A: 0.186

Q: With A10C U61G as the variant, how does the self-cleavage read?
A: 0.768

Q: Which self-cleavage does the source give for A10C U61A here?
A: 0.937

Q: With A10C U61C as the variant, how does the self-cleavage read?
A: 0.763

Q: With C9U U21C as the variant, how does the self-cleavage read?
A: 0.999

Q: With C9G U67C as the variant, how does the self-cleavage read?
A: 0.976

Q: Which self-cleavage does the source give for C9G U67G here?
A: 1.05

Q: For C9G U20A, which self-cleavage is on record?
A: 0.0617

Q: Which self-cleavage does the source give for C9G U20G here?
A: 0.212

Q: For C9U U38G, which self-cleavage is on record?
A: 0.306

Q: For C9U U38C, which self-cleavage is on record?
A: 1.02

Q: Which self-cleavage does the source give for C9U U38A here?
A: 0.931

Q: Which self-cleavage does the source give for C9U C22U here?
A: 0.403

Q: With A10G A13C as the variant, how does the self-cleavage read?
A: 0.182

Q: With C9U U64C as the variant, how does the self-cleavage read?
A: 0.999

Q: For C9U U64A, which self-cleavage is on record?
A: 1.04

Q: With C9U U64G as the variant, how does the self-cleavage read?
A: 0.981

Q: With A10C C22U as the variant, how does the self-cleavage read?
A: 0.351

Q: For A10C C22G, which self-cleavage is on record?
A: 0.141

Q: With A10C G56C as the variant, how does the self-cleavage read?
A: 0.772

Q: With A10C C35G as the variant, how does the self-cleavage read?
A: 0.631

Q: For A10C C35U, which self-cleavage is on record?
A: 0.992

Q: With A10C C35A as the variant, how does the self-cleavage read?
A: 0.325

Q: Which self-cleavage does the source give for A10G A42U here?
A: 0.78

Q: For A10G A42G, which self-cleavage is on record?
A: 0.636

Q: For C9U A52U, which self-cleavage is on record?
A: 0.996

Q: For C9U A52C, which self-cleavage is on record?
A: 1.01

Q: Which self-cleavage does the source give for A10G A60G here?
A: 0.656

Q: With A10G G14U as the variant, how does the self-cleavage read?
A: 0.12

Q: With A10G G14A as the variant, how does the self-cleavage read?
A: 0.195

Q: With A10C A23C as the variant, how does the self-cleavage read?
A: 0.938

Q: For A10C A23U, which self-cleavage is on record?
A: 0.983

Q: Which self-cleavage does the source give for A10C A16G here?
A: 0.967

Q: For A10C A16U, which self-cleavage is on record?
A: 0.818

Q: Which self-cleavage does the source give for A10C A16C here?
A: 0.252

Q: With A10C C39A as the variant, how does the self-cleavage read?
A: 0.861

Q: With A10C C39G as the variant, how does the self-cleavage read?
A: 0.987

Q: Which self-cleavage does the source give for C9U G25U here?
A: 0.192

Q: For C9U G25C, which self-cleavage is on record?
A: 0.146

Q: Which self-cleavage does the source give for C9U C18U here?
A: 0.927

Q: With C9U C18G as the variant, how does the self-cleavage read?
A: 0.283

Q: Which self-cleavage does the source give for C9U C18A here?
A: 0.355

Q: For C9G U21A, which self-cleavage is on record?
A: 0.998

Q: For C9G U21G, which self-cleavage is on record?
A: 0.696

Q: With C9G U21C as the variant, how does the self-cleavage read?
A: 0.943

Q: For C9U A13C, which self-cleavage is on record?
A: 0.925

Q: For C9U A13U, which self-cleavage is on record?
A: 0.966

Q: With C9U U36G as the variant, how does the self-cleavage read?
A: 0.214

Q: Which self-cleavage does the source give for A10C U64G here?
A: 0.804

Q: Which self-cleavage does the source give for A10G C66G here?
A: 0.35

Q: For A10G C66U, which self-cleavage is on record?
A: 0.645

Q: For A10G G19U, which self-cleavage is on record?
A: 0.162

Q: Which self-cleavage does the source give for A10G G19C here?
A: 0.104

Q: For A10G G19A, which self-cleavage is on record?
A: 0.157

Q: For C9U C39A, which self-cleavage is on record?
A: 0.912

Q: For C9U C39G, which self-cleavage is on record?
A: 0.962

Q: For A10C G65A, which self-cleavage is on record?
A: 0.798

Q: With A10C G65U as the variant, how does the self-cleavage read?
A: 0.655

Q: For A10C G65C, which self-cleavage is on record?
A: 0.637

Q: Which self-cleavage does the source give for A10C G11A here?
A: 0.887

Q: For A10C G11U, which self-cleavage is on record?
A: 0.913

Q: With A10C U62G as the variant, how does the self-cleavage read?
A: 0.772

Q: For A10C U62C, which self-cleavage is on record?
A: 0.72

Q: With C9U A16C as the variant, how does the self-cleavage read?
A: 0.531

Q: With C9G U53G as the variant, how does the self-cleavage read?
A: 0.961

Q: With C9G U53C as the variant, how does the self-cleavage read?
A: 0.956

Q: For C9U C54G, which self-cleavage is on record?
A: 0.994

Q: For C9U C54A, which self-cleavage is on record?
A: 0.978

Q: With C9U C29A as the variant, how does the self-cleavage read?
A: 0.922

Q: Which self-cleavage does the source give for C9U C29G here?
A: 0.923

Q: Which self-cleavage does the source give for A10C G48A here?
A: 1.02

Q: With C9U U46C as the variant, how does the self-cleavage read?
A: 1.02

Q: With C9U U46G as the variant, how does the self-cleavage read?
A: 1.04

Q: With C9U U46A as the variant, how does the self-cleavage read?
A: 0.964

Q: With C9G U69A as the variant, how does the self-cleavage read?
A: 1.04

Q: With C9G U69G as the variant, how does the self-cleavage read?
A: 1.05

Q: For A10C, which self-cleavage is on record?
A: 1.01

Q: Which self-cleavage does the source give for A10G here?
A: 0.94

Q: For A10G G25C, which self-cleavage is on record?
A: 0.125

Q: Which self-cleavage does the source give for C9U C33A here?
A: 0.994

Q: Which self-cleavage does the source give for C9U C33U here?
A: 0.996

Q: For A10C G17A, which self-cleavage is on record?
A: 0.48

Q: Which self-cleavage does the source give for A10C G17C here?
A: 0.0999

Q: Which self-cleavage does the source give for C9U U67G here?
A: 1.01

Q: Which self-cleavage does the source give for C9U U67A here?
A: 1.01

Q: Which self-cleavage does the source give for C9U U67C here?
A: 1.02

Q: With C9U A23U as the variant, how does the self-cleavage read?
A: 1.01

Q: For C9U A23C, which self-cleavage is on record?
A: 0.982

Q: With C9U A23G as the variant, how does the self-cleavage read?
A: 1.01

Q: Which self-cleavage does the source give for C9G U26C here?
A: 0.964

Q: For C9G U26A, which self-cleavage is on record?
A: 0.912

Q: Which self-cleavage does the source give for C9G U26G here?
A: 0.93

Q: With C9U U20A as the variant, how does the self-cleavage read?
A: 0.148

Q: For C9U U20C, which self-cleavage is on record?
A: 0.186

Q: For C9U G17A, which self-cleavage is on record?
A: 0.817

Q: For A10C U20C, which self-cleavage is on record?
A: 0.286

Q: For A10C U20G, which self-cleavage is on record?
A: 0.0821

Q: Which self-cleavage does the source give for A10C U20A here?
A: 0.205

Q: Which self-cleavage does the source give for A10C A15G here?
A: 0.947

Q: Which self-cleavage does the source give for A10C A15U here?
A: 0.77

Q: For A10C A15C, which self-cleavage is on record?
A: 0.771

Q: With A10G C54A as the variant, how does the self-cleavage read?
A: 0.527

Q: Which self-cleavage does the source give for A10G C54U here?
A: 0.8

Q: For A10G C54G, which self-cleavage is on record?
A: 0.404
